Laboratory results taken from US20240301386A1, “Soluble Guanylyl Cyclase (GC1) Mimetic Polypeptides and Methods of Use Thereof” (Rutgers, the State University of New Jersey, priority 2023, published 2024).

How the values were obtained:
[1] = tested on: caspase-3; test: Caspase-3 activity assay in Jurkat T cells ± etoposide; type: cell-based, human; settings: etoposide 8 μM 16 h compared to samples not treated with ETO
Protocol: The cells in suspension in 2 ml serum-free medium were treated with either 70% DMSO (20 μL, 0.7% final), scramble peptide, or inhibitory peptide at a final concentration of 10 μM and incubated at 37° C. for 1 h. After incubation, the cells were washed twice and incubated in complete medium at 37° C. for 8 h. The cells were then treated with (or without) etoposide (ETO) at 8 μM final at 37° C. for 16 h.
For Caspase-3 activity assays: After 16 h incubation, the cells were washed twice with cold PBS and lysed in the supplier's 1× lysis buffer (at 10 μL per 10^6 cells). After 15 min incubation on ice, the lysates were centrifuged at 16,000 g for 15 min at 4° C. and the supernatant collected. Caspase-3 activity was measured following the supplier's instructions (CASP3C-1KT, Sigma) after 2 and 3 h incubation.
Whether these observations correlated with an increased caspase-3 activity was next assessed with a colorimetric assay based on cleavage of the substrate […], under the same above conditions. […] It was concluded that disrupting the SNO-GC1→oTrx1→procaspase-3 transnitrosation cascade using a peptide inhibitory of the GC1/Trx1 interaction promotes Jurkat T-cells apoptosis.

[2] = tested on: Jurkat T cells; test: Biotin-avidin switch assays of S-nitrosation in Jurkat T cells ± etoposide; type: cell-based, human
Protocol: Jurkat cells were cultured in a 6-well plate at the density of 0.25×10^6/ml in complete medium RPMI 1640 from Corning (10-040-CV) supplemented with 10% FBS and Pen-Strep and incubated at 37° C. with 5% CO2 for 24 h. The cells were collected by centrifuging at 1000 g for 5 min, washed twice with serum-free medium, and re-suspended with 2 ml serum-free medium prior to peptide treatment.
Free thiols of proteins were blocked in lysis-blocking buffer containing 50 mM Tris, pH 7.5, 150 mM NaCl, 1% Triton X-100, 1 mM EDTA, 2% SDS, 0.1 mM neocuproine, 0.2 mM PSMF, and 40 mM N-ethylmaleimide (NEM) at 50° C. for 30 min in the dark. Excess NEM was removed using cold acetone precipitation. The protein pellets were generated by centrifugating at 14000 g for 10 min at 4° C. and washed 3 times using cold acetone. […]
For biotin-avidin switch assays: After 16 h incubation, the cells were washed twice with cold PBS and lysed in lysis-blocking buffer containing 50 mM Tris, pH 7.5, 150 mM NaCl, 1% Triton X-100, 1 mM EDTA, 2% SDS, 0.1 mM neocuproine, and 40 mM NEM supplemented with PMSF and protease inhibitor cocktail. The protein concentration was measured using the Bradford method. 50 μg of each lysate was analyzed by Western blot as starting material (inputs) and 200 μg proteins of each sample were subjected to the biotin switch and avidin assays, as described elsewhere herein. […]

[3] = molecular target: T1, Oxidized GC1 (oGC1), recombinant human GC1 treated with 100 µM diamide, Q02153
T1 chain 1: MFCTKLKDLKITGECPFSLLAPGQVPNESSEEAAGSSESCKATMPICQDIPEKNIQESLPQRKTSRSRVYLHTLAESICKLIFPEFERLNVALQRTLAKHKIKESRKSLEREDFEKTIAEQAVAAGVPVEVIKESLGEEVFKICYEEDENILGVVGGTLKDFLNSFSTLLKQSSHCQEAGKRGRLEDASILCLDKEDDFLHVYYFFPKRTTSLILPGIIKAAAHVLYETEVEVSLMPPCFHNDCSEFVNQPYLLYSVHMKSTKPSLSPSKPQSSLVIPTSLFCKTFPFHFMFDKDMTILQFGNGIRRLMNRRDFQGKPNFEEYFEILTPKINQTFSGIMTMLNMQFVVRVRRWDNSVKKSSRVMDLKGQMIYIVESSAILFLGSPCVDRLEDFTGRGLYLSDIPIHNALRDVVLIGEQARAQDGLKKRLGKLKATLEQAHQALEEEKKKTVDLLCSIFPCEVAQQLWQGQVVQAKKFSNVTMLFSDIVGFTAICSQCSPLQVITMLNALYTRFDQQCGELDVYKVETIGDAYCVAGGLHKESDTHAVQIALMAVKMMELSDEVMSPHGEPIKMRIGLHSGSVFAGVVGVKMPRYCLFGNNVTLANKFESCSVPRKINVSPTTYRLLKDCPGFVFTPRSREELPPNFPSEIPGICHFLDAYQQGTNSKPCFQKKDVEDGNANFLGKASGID
T1 chain 2: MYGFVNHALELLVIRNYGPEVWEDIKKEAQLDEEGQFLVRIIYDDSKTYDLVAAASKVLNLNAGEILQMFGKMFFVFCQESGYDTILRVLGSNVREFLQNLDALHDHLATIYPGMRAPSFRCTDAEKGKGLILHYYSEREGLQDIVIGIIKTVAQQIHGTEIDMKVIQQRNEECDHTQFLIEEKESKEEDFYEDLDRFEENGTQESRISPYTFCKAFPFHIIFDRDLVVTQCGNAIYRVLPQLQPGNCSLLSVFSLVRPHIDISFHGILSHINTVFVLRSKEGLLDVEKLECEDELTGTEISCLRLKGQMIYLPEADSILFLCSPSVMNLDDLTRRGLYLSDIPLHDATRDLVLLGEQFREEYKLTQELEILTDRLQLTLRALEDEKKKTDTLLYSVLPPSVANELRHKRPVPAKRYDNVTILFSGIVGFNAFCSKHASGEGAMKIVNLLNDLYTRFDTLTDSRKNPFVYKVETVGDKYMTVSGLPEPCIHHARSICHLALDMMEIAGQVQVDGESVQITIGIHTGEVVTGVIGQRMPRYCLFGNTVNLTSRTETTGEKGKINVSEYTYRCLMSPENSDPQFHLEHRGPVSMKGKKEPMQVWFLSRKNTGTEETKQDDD

[4] = molecular target: T2, Purified recombinant human soluble guanylyl cyclase (GC1), Q02153
T2 chain 1: T1 chain 1
T2 chain 2: T1 chain 2

[5] = molecular target: T3, Oxidized Trx1 (oTrx1), recombinant human Trx1 treated with 100 µM diamide, P10599
T3 chain: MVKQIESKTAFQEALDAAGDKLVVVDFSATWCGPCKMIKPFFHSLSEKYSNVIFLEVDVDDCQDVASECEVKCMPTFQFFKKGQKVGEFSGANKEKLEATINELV

COc1cc([C@@H]2c3cc4c(cc3[C@@H](O[C@@H]3O[C@@H]5CO[C@@H](C)O[C@H]5[C@H](O)[C@H]3O)[C@H]3COC(=O)[C@H]23)OCO4)cc(OC)c1O [Etoposide]
caspase-3 activity in Jurkat cells treated with ETO [1]: significant increase | global levels of S-nitrosation in Jurkat T cells ([2]; peptide 10 μM 1 h, etoposide 8 μM 16 h (FIG. 8A left panel)): did not affect | SNO-procaspase-3 level in Jurkat T cells ([2]; peptide 10 μM 1 h ± etoposide 8 μM 16 h, avidin purified, compared to DMSO and scramble peptide (FIG. 8A right panel)): slightly reduced

B1: Reduced Trx1 (rTrx1), recombinant human Trx1 treated with 10 mM DTT (protein)
chain: T3 chain
conversion of oGC1 multimers into monomers (non-reducing gel, Western blot) [3]: rTrx1 converted oGC1 multimers into monomers to some extent | conversion of oGC1 multimers into monomers in the presence of 125 µM scramble peptide [3]: the reducing effect of Trx1 was maintained with the scramble peptide as control

B2: Thioredoxin 1 (Trx1) protein, purified (protein)
chain: T3 chain
NO-stimulated GC1 activity (1 µM DEA-NO), purified GC1 + Trx1 1:7 [4]: FIG. 3A first confirmed the increased NO-stimulated activity of GC1 by Trx1 | NO-stimulated GC1 activity, purified GC1 + Trx1 in the presence of peptide 1 (25 µM) [4]: Trx1-dependent increase of NO-stimulated GC1 activity was similarly blunted by the 3 peptides | NO-stimulated GC1 activity, purified GC1 + Trx1 in the presence of peptide 2 (25 µM) [4]: Trx1-dependent increase of NO-stimulated GC1 activity was similarly blunted by the 3 peptides | NO-stimulated GC1 activity, purified GC1 + Trx1 in the presence of peptide 3 (25 µM) [4]: Trx1-dependent increase of NO-stimulated GC1 activity was similarly blunted by the 3 peptides | NO-stimulated GC1 activity, purified GC1 + Trx1 in the presence of the scramble peptide (25 µM) [4]: the scramble peptide had no effect

B3: Reduced GC1 (rGC1), recombinant human GC1 treated with 10 mM DTT (protein)
chain 1: T1 chain 1
chain 2: T1 chain 2
conversion of oTrx1 dimers into monomers (non-reducing gel, Western blot) [5]: rGC1 converted most of oTrx1 dimer into Trx1 monomers | conversion of oTrx1 dimers into monomers in the presence of 125 µM scramble peptide [5]: the rGC1-dependent conversation of Trx1 from dimers to monomers was maintained in the presence of the scramble peptide
